# Data as given in publication PMC6695210, “Bipartite interface of the measles virus phosphoprotein X domain with the large polymerase protein regulates viral polymerase dynamics” (PLoS Pathogens, 2019).
# Numbering of substitutions follows the chain as printed.
# B1: MeV P (361–364)Ala, P with residues 361–364 substituted with alanines (natural protein, measles virus (strain IC-B), UniProt Q9WMB4 1-507, looked up)
# chain: MAEEQARHVKNGLECIRALKAEPIGSLAVEEAMAAWSEISDNPGQDRATCKEEEAGSSGLSKPCLSAIGSTEGGAPRIRGQGSGESDDDAETLGIPSRNLQASSTGLQCYHVYDHSGEAVKGIQDADSIMVQSGLDGDSTLSGGDDESENSDVDIGEPDTEGYAITDRGSAPISMGFRASDVETAEGGEIHELLKLQSRGNNFPKLGKTLNVPPPPNPSRASTSETPIKKGTDARLASFGTEIASLLTGGATQCARKSPSEPSGPGAPAGNVPECVSNAALIQEWTPESGTTISPRSQNNEEGGDYYDDELFSDVQDIKTALAKIHEDNQKIISKLESLLLLKGEVESIKKQINRQNISIAAAAGHLSSIMIAIPGLGKDPNDPTADVELNPDLKPIIGRDSGRALAEVLKKPVASRQLQGMTNGRTSSRGQLLKEFQLKPIGKKVSSAVGFVPDTGPASRSVIRSIIKSSRLEEDRKRYLMTLLDDIKGANDLAKFHQMLMKIIMK
# notes: MeV strain IC-B phosphoprotein P; of the old residues only S361 is printed in the text; also called M1; source: transiently transfected cells, in lysate; not shown: HA, C-terminal, kept
# B2: MeV phosphoprotein (P), wild type (natural protein)
# chain: B1 chain with A361S, A362T, A363L, A364E
# notes: measles virus (MeV) strain IC-B phosphoprotein P, codon-optimized synthetic ORF; ends at residue 507 by the printed limits of P-XD (459–507); also called wild type P; wt P; not shown: HA, C-terminal, kept
# Legend:
# Experiment in all cases: native gel or EMSA; native PAGE (3–12% Bis-Tris gradient gels, G-250 additive) of cleared lysates of transfected cells, immunoblot; trimeric and dimeric GCN4 variants as mobility reference
# [1] = biological target: MeV P with residues 303–377 replaced by the tetrameric mutant of the yeast GCN4 coiled-coil (measles virus (strain IC-B) | yeast) (UniProt Q9WMB4)
# [2] = biological target: MeV P-GCN4_(303-360), P with OD residues 303–360 replaced by the tetrameric mutant of the yeast GCN4 coiled-coil (measles virus (strain IC-B) | yeast) (UniProt Q9WMB4)
# [3] = biological target: the molecule itself
Molecule,stoichiometry N [3],other results
MeV P with residues 303–377 replaced by the tetrameric mutant of the yeast GCN4 coiled-coil (from UniProt Q9WMB4 1-302; Q9WMB4 378-507),,stoichiometry N [1]: 4
"MeV P-GCN4_(303-360), P with OD residues 303–360 replaced by the tetrameric mutant of the yeast GCN4 coiled-coil (from UniProt Q9WMB4 1-302; Q9WMB4 361-507)",,stoichiometry N [2]: 4
B1,4,
B2,4,
